One molecule from US20230391828A1 (TECHNISCHE UNIVERSIT T DRESDEN, published 2023) can be followed below.

Test [1] has as its target T1, Cullin 1 (human (HeLa K cells), UniProt Q13616 1-776).
T1 construct: Detected by western blot after pull-down from HeLa K cell extract; also called Cullin 1, subunit of E3 ubiquitin ligases related to the APC/C
In words: pull-down from HeLa K cell extract with G3-6Pra on azide magnetic beads, western blot. For orientation: A western blot detects proteins with antibodies after separation by electrophoresis.
Experimental: (§1) As a control, G3-N4Pra negative control molecule was used. Western blot analysis was performed and indicated proteins were detected using near-infrared fluorescence imaging. GAPDH serves as a control for unspecific binding.
(§2) In mean time, inhibitor molecules containing Propargyl (Pra) chemical group were covalently attached to the azide agarose or azide magnetic resin (Jena Bioscience) by Cu(I)-catalysed azide-alkyne cycloaddition reaction. […] The reaction was catalysed by 1 mM CuSO₄, 0.1 mM TBTA (Sigma-Aldrich) and 1 mM Sodium ascorbate and was performed on the rotating wheel for 30 min at room temperature in the volume of 1 ml. Subsequently, the resin was washed 5 times with the extraction buffer. The inhibitor-agarose resin was added to 1 mg of HeLa K cell extract and the inhibitor-magnetic resin was added to 0.5 mg of HeLa K cell extract followed by incubation at 4° C. for 2 h. Followed by washing the resin 5 times with the extraction buffer. Pull-down proteins were eluted by boiling for 15 min with 1×LDS sample buffer supplemented with 100 mM DTT (agarose resin) or by incubation with 1×LDS sample buffer for 10 min at room temperature followed by taking supernatant that was supplemented with 100 mM DTT and boiling it for 10 min. Samples were subjected to SDS PAGE and Western blot analysis.

In test [2] the target is T2, RBX1 (human (HeLa K cells), UniProt P62877 2-108).
T2 construct: Detected by western blot after pull-down from HeLa K cell extract
The test is described as above.
Experimental: as §1, §2

Bridge positions count the residues as written; N and C are the ends. Square brackets hold non-standard residues; d marks the D form. R8 = C=CCCCCCC[C@@](C)(N)C(=O)O; S5 = C=CCCC[C@](C)(N)C(=O)O; Pra = C#CC[C@H](N)C(=O)O

T2 sequence (P62877 2-108 limits assumed): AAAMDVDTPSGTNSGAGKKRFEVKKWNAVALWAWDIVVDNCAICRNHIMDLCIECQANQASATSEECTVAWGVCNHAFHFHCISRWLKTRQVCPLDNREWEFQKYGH
T1 sequence (Q13616 whole entry): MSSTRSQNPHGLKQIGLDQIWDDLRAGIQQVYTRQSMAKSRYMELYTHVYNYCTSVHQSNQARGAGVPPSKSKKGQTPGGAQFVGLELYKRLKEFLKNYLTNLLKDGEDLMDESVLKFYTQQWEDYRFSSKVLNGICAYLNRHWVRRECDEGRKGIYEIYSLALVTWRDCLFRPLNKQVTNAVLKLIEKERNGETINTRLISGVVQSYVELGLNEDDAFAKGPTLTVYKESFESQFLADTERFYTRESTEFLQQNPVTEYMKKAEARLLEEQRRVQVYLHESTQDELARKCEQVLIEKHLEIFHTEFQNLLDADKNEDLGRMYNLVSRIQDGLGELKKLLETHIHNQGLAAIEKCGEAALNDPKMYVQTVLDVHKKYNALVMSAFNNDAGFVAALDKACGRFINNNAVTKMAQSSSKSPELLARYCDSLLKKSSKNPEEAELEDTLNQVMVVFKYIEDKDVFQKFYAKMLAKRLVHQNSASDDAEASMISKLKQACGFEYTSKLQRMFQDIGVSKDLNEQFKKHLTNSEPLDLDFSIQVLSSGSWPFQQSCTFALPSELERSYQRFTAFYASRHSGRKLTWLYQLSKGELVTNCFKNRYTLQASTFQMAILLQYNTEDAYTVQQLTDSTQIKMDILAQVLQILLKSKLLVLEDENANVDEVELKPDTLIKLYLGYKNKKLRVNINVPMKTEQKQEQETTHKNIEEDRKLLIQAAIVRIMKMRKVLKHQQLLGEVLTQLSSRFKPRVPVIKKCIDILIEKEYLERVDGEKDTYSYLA

B1: G3-6Pra, Ac-cyclo(4,11)-EWPraZIKEIQRXRRA-NH2 (peptide)
peptide: Ac-EW[Pra][R8]IKEIQR[S5]RRA-NH2
modifications: staple 4-11; not fully specified (residue 3); printed as Ac-cyclo(4,11)-EWWZIKEIQRXRRA-NH2
notes: In the pull-down it was covalently attached to azide magnetic beads through Pra; also called ID; NO; 37
As to B1, the binding result in test [1] and in test [2] was “no binding” each time.
